Results: the supplement of paper PMC7125110
± gives the standard error. Fewer inactive variants are shown than the library holds.

B1: glmS ribozyme (parent)
chain: AUAAAAGCGCCAGAACUACAGAAAUGUAGUUGACGAGGAGGAGGUUUAUCGAAUUUUCGGCGGAUGCCUCCAAA

Key:
Settings in all cases: with glucosamine-6-phosphate
glucosamine-6-phosphate [1] = variants of: B1; experiment: self-cleavage kobs at 640 uM GlcN6P; higher = faster cleavage; RNA array
Summary of the method: (§1)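 A hybridised Cy3 probe tracked barcoded ribozyme variants, transcribed in situ by E. coli RNA polymerase on sequenced MiSeq chips, at 37 °C. The variants received 40 μM to 10 mM glucosamine-6-phosphate in HEPES/KCl/Mg(OAc)2 buffer. kobs came from decay fits and kcat and KM from weighted Michaelis–Menten fits.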

glucosamine-6-phosphate [2] = variants of: B1; experiment: self-cleavage kobs at 2500 uM GlcN6P; higher = faster cleavage; RNA array
Summary of the method: as §1

glucosamine-6-phosphate [3] = variants of: B1; experiment: self-cleavage kobs at 10000 uM GlcN6P; higher = faster cleavage; RNA array
Summary of the method: as §1

| Variant | self-cleavage kobs at 640 uM GlcN6P (glucosamine-6-phosphate [1]) [s⁻¹] | self-cleavage kobs at 2500 uM GlcN6P (glucosamine-6-phosphate [2]) [s⁻¹] | self-cleavage kobs at 10000 uM GlcN6P (glucosamine-6-phosphate [3]) [s⁻¹] |
| --- | --- | --- | --- |
| A12U G29A U31C | 0.000169 ± 4.1e-05 | 0.00041 ± 0.00015 | 0.000943 ± 0.00018 |
| G13C A39C C61A C70U | < 1e-05 | – | – |
| A12C G41A A48C | < 1e-05 | – | – |
| C16A U56G C58G G62C | < 1e-05 | – | – |
| A12C G38C U49C C50A | < 1e-05 | < 1e-05 | – |
| A15C G32U U55G C58G U69G | 0.000909 ± 0.00036 | – | – |
| G13A U45A U49A | < 1e-05 | < 1e-05 | – |
| A12G G37A A48G G63C | < 1e-05 | – | – |
| A15U C50A C68U | 7.76e-05 ± 2.5e-05 | – | – |
| A14G C16U U45C | 0.000986 ± 0.00024 | 0.00371 ± 0.00065 | – |
| A15U G40C A52U | < 1e-05 | – | – |
| A14C G44A A64U | < 1e-05 | – | – |
| C16G G32U C61U | < 1e-05 | < 1e-05 | – |
| A14U U30G G40A | 0.000126 ± 3.6e-05 | 0.000424 ± 0.00014 | – |
| A12C A52U U57A | 0.000131 ± 2.7e-05 | 0.000458 ± 5.1e-05 | – |
| A12U A33G A48C | < 1e-05 | < 1e-05 | – |
| A14G U54A C58A C68U | 9.22e-05 ± 1.9e-05 | 0.000131 ± 2.9e-05 | – |
| C16U G59C G62U | < 1e-05 | – | – |
| G13U G29U G32A | 0.000242 ± 7e-05 | – | – |
| A14U A36G G40A G41A U54A U57A C71U | < 1e-05 | – | – |
| G13U G40U G63C | < 1e-05 | < 1e-05 | – |

| Variant | self-cleavage kobs at 640 uM GlcN6P (glucosamine-6-phosphate [1]) [s⁻¹] | self-cleavage kobs at 2500 uM GlcN6P (glucosamine-6-phosphate [2]) [s⁻¹] | self-cleavage kobs at 10000 uM GlcN6P (glucosamine-6-phosphate [3]) [s⁻¹] |
| --- | --- | --- | --- |
| G13U U56C A64G | < 1e-05 | – | – |
| G13U G37C U56C C67A C71U | < 1e-05 | – | – |
| A12G C16G C50G C68G | 0.000104 ± 4.5e-05 | – | – |
| A14G A33G G41U A48C U69G | < 1e-05 | < 1e-05 | – |
| C16U G32U C34G A53C | < 1e-05 | < 1e-05 | – |
| G13U U30C C61A | < 1e-05 | – | – |
| A14U A15C A33U U49C C50G U69A | 0.0012 ± 0.00039 | 0.000218 ± 9.1e-05 | – |
| A12G A39C A42C | < 1e-05 | – | – |
| A12U A15G U47G | 0.00207 ± 0.00042 | – | – |
| G13C G37U G43C | < 1e-05 | < 1e-05 | – |
| C16U A39G A42U U47A | 5.33e-05 ± 2.6e-05 | 0.000115 ± 1.9e-05 | – |
| G13A G44C | < 1e-05 | – | – |
| C16A A42C C71U | < 1e-05 | < 1e-05 | – |
| G13A A42C G44U | < 1e-05 | – | – |
| A15U A36C U56G U69A | 7.26e-05 ± 3.4e-05 | – | – |
| A12G C34U | < 1e-05 | – | < 1e-05 |
| G13U C16A A39G G40U C68G | < 1e-05 | < 1e-05 | – |
| A12U C67G C71A | < 1e-05 | – | – |
| C16U U55A C68U | 0.000364 ± 0.00011 | 0.00062 ± 0.00021 | – |
| C16U U55A C68G | 8.37e-05 ± 1.4e-05 | 3.34e-05 ± 1e-05 | 7.42e-05 ± 1.8e-05 |
| C16G U45A C58A | 6.95e-05 ± 1.6e-05 | 0.000197 ± 3.9e-05 | – |

| Variant | self-cleavage kobs at 640 uM GlcN6P (glucosamine-6-phosphate [1]) [s⁻¹] | self-cleavage kobs at 2500 uM GlcN6P (glucosamine-6-phosphate [2]) [s⁻¹] | self-cleavage kobs at 10000 uM GlcN6P (glucosamine-6-phosphate [3]) [s⁻¹] |
| --- | --- | --- | --- |
| A12C C58U C70U | 6.75e-05 ± 2.5e-05 | 7.09e-05 ± 3.2e-05 | – |
| C16A G38U U47A | < 1e-05 | – | – |
| A14C C61U C68G | 0.0001 ± 3.3e-05 | – | – |
| A15C U31C A33G G38A | < 1e-05 | – | < 1e-05 |
| A12G A39U A42C | 8.45e-05 ± 2.4e-05 | 0.000119 ± 2.7e-05 | – |
| A12G A39C G41U U47A A48U C61U A64U | < 1e-05 | < 1e-05 | – |
| G13C A14G U56C | 6.74e-05 ± 1.6e-05 | 0.000185 ± 4.6e-05 | – |
| A15U G32A U46G C50G | 8.2e-05 ± 2.3e-05 | – | – |
| C16A A39U U54C | 0.000107 ± 2.9e-05 | 0.000434 ± 9.7e-05 | 0.000811 ± 0.00017 |
| A14G U30G A64G | 0.00462 ± 0.0017 | 0.00995 ± 0.0044 | – |
| A15U A52U G66C C71U | < 1e-05 | – | – |
| A14G U54C C68G | 0.000112 ± 3e-05 | 7.7e-05 ± 1.8e-05 | – |
| A12C A15U A39G | 0.000865 ± 0.00025 | 0.00201 ± 0.00075 | 0.003 ± 0.00075 |
| A12U C19U U69A | 0.000392 ± 0.0001 | 0.000303 ± 6e-05 | – |
| A12C U31C A39G | 0.000185 ± 3.9e-05 | 0.00135 ± 0.00023 | 0.00124 ± 0.00028 |
| C16G G29A G40A A42C | < 1e-05 | < 1e-05 | – |
| C16U G60U C68A | < 1e-05 | – | – |
| A15C C16U U56C | 7.03e-05 ± 1.8e-05 | 0.000249 ± 7.3e-05 | – |
| A15G U31C A33C A52U U54C | < 1e-05 | < 1e-05 | – |
| A14G G38C G44A | < 1e-05 | < 1e-05 | < 1e-05 |
| A14C G43U U56A C68U | 9.14e-05 ± 2.6e-05 | 0.000133 ± 3.7e-05 | – |
